From patent publication US20140294866A1 (Amgen, published 2014)

Tests used:
[1] = target: T1, recombinant mature myostatin (human, produced in E. coli) (human, UniProt O14793 267-375); assay: cell-based or functional assay
T1 sequence (looked up): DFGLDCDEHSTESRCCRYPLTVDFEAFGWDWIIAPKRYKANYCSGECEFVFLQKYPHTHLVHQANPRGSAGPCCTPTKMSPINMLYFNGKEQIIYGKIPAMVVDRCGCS

[2] = target: T1, recombinant mature myostatin (human, …); assay: cell-based or functional assay; remark: listed apart in the source
[3] = target: T1, recombinant mature myostatin (human, …); assay: KinExA solution based assay or BIAcore assay (not said which)

Binder	Kd [3] [pM]	further results
recombinant human activin receptor IIB/Fc chimera (R&D Systems) (Fc fusion, UniProt Q13705 19-134, looked up, not shown: a dimerising Fc or GST) SGRGEAETRECIYYNANWELERTNQSGLERCEGEQDKRLHCYASWRNSSGTIELVKKGCWLDDFNCYDRQECVATEENPQVYFCCCEGNFCNERFTHLPEAGGPEVTYEPPPTAPT	–	IC50 (nM), C2C12 pMARE-luc myostatin activity assay [1]: ~83 nM
QGHCTRWPWMCPPY [TN8-19 peptide]	–	IC50 (read off the curve); luciferase activity, C2C12 pMARE-luc reporter cells, 4 nM myostatin [2]: ~20 µM
2x mTN8-19-7 peptibody (Fc fusion) GGGGGAQLADHGQCIRWPWMCPPEGWELEGSGSATGGSGSTASSGSGSATGLADHGQCIRWPWMCPPEGWELE	12	–
2x mTN8-19-21 peptibody (Fc fusion, Human Fc form) GGGGGAQSEYQGLCTRWPWMCPPQGWKLEGSGSATGGSGSTASSGSGSATGSEYQGLCTRWPWMCPPQGWKLE	6	–
2x mTN8-19-33 peptibody (Fc fusion) GGGGGAQPESQGHCTRWPWMCPPQGWGLEGSGSATGGSGSTASSGSGSATGPESQGHCTRWPWMCPPQGWGLE	3	–
